Measurements published in patent CN114736293A.

Target: SARS-CoV-2 S蛋白(spike protein)，展示于假病毒表面 (SARS-CoV-2) (UniProt P0DTC2)
Assay: cell-based or functional assay

Question: What does the source list for “自组装铁蛋白融合纳米抗体Ferritin-H11-D4(家蚕杆状病毒表达系统表达)”?
Answer: IC50(假病毒中和试验): 2.19 nM; 中和活性，相对大肠杆菌表达的铁蛋白融合蛋白的倍数: 20 fold; 对假病毒的中和活性，相对单独表达的纳米抗体H11-D4的倍数: 8 fold
